T1: RBP45d (His-RBP45d) (Arabidopsis thaliana, UniProt Q8VXZ9 1-425)
T1 sequence: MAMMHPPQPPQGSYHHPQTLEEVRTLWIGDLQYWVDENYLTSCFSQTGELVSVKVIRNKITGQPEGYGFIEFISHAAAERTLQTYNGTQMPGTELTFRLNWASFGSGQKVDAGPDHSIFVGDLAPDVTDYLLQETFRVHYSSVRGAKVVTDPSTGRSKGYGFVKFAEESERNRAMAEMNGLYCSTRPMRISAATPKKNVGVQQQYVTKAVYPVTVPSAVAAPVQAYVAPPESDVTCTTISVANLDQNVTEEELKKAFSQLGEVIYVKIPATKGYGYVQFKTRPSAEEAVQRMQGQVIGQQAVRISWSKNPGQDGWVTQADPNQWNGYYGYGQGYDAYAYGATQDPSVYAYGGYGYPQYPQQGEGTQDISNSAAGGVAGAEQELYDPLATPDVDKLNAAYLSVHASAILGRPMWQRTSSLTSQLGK


Key:
RBP45d (His-RBP45d) [1] = target: T1, RBP45d (His-RBP45d); experiment: competition; unlabeled vs Cy5-SOT5-IN7; REMSA; buffer, salt, pH and temperature not given in the material; unlabeled competitor up to at least 6 uM; conditions: protein: recombinant; tags: His (pET51b); single strand
RBP45d (His-RBP45d) [2] = target: T1, RBP45d (His-RBP45d); experiment: EMSA; dose-dependent; REMSA; buffer, salt, pH and temperature not given in the material; unlabeled competitor up to at least 6 uM; conditions: protein: recombinant; tags: His (pET51b); label: 5'-Cy5; single strand

| Binder | binding result (RBP45d (His-RBP45d) [1]) | binding result (RBP45d (His-RBP45d) [2]) |
| --- | --- | --- |
| CUCAAUAUGAUAAAUUUUGUAAAUC (ssRNA) [SOT5-IN7-NL] | binds |  |
| CUCAAUAUGGUAAAUUUUGUAAAUC (ssRNA) [SOT5-IN7-M1-NL] | binds |  |
| CUCAAUAUGGCAAAUUUUGUAAAUC (ssRNA) [SOT5-IN7-M2-NL] | binds |  |
| CUCAAUAUGCCCGGCCGGGUAAAUC (ssRNA) [SOT5-IN7-M4-NL] | no binding |  |
| CUCAAUAUGAUAAAUUUUGUAAAUC (ssRNA) [Cy5-SOT5-IN7] |  | binds |

Source: publication PMC9813592, “A genetic screen in Arabidopsis reveals the identical roles for RBP45d and PRP39a in 5’ cryptic splice site selection”
